According to patent US20150210768A1, “Methods and Compounds for Preventing, Treating and Diagnosing an Inflammatory Condition” (Westfaelische Wilhelms-Universitaet Muenster, priority 2012, published 2015):

Assays:
[1] = molecular target: T1, TLR4/MD2 (Homo sapiens, UniProt O00206); experiment: Immunoprecipitation of peptides on bead-coupled TLR4/MD2, eluates analysed by MALDI-TOF mass spectrometry; format: binding; design: purchased R&D SYSTEMS; conditions: bead-coupled his-tagged rhTLR4/MD2, 1 mM Calcium, 3 h at 4° C.; MALDI-TOF detection; FIG. 3B, 4, 5
T1 sequence (O00206 24-631 limits assumed): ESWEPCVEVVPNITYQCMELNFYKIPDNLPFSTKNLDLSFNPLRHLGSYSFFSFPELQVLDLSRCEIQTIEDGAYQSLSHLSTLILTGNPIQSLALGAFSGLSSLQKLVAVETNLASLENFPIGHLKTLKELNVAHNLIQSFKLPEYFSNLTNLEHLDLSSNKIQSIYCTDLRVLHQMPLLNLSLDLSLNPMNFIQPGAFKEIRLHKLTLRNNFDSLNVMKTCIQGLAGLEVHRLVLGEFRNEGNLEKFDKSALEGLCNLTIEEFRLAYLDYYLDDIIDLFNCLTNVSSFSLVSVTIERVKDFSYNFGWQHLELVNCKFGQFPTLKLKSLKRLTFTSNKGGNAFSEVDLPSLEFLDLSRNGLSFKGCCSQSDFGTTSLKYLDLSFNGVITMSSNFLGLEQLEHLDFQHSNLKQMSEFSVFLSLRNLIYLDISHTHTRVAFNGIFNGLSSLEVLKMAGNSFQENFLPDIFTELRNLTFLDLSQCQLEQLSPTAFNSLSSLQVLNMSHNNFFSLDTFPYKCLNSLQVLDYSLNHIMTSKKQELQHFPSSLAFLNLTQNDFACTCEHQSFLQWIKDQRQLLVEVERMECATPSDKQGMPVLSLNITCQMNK
T1 sequence (Q9Y6Y9 17-160 partner limits assumed): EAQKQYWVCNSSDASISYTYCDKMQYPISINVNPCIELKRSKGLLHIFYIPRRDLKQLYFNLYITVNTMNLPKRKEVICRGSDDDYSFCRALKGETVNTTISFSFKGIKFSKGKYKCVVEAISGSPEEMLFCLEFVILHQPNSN
Description: Anti-His antibody (5 μL, 0.5 mg/mL, Invivogen) and his-tagged rhTLR4/MD2 (5 μL, 1 mg/mL, carrier free, R&D SYSTEMS) were mixed and coupled to Protein A/G Agarose (50 μl, Pierce, Thermo Scientific). Trypsin digested peptides of S100A9 were added for 3 h at 4° C. in the presence of 1 mM Calcium. After washing of the beads in HBS/1 mM Ca-buffer for three times bound peptidic fragments were eluted by addition of 10 mM TRIS/2 mM EDTA-buffer and analysed by ESI-QIT- and MALDI-TOF-mass spectrometry. Identical experiments were performed to analyze the binding of the chemical synthesized peptides of S100A9 (aa63-79), S100A8 (aa55-71) and the corresponding control peptides aa63-79 AS and aa55-71 A3.

[2] = molecular target: T2, his-tagged rhTLR4/MD2 (human, UniProt O00206 24-631; Q9Y6Y9 19-160); experiment: modified S100A9 ELISA, TLR4/MD2 coated on the plate, 2 ug/ml S100A9 protein, absorbance at 450 nm (FIG. 6C)
T2 construct: Bought recombinant human complex (carrier free, R&D SYSTEMS), his-tagged; In the pull-down it was captured by anti-His antibody on Protein A/G agarose; in the ELISA it was coated on the plate; also called TLR4/MD2 complex; TRLR4/MD2
T2 sequence (O00206 24-631 limits assumed, chain 1 of 2): as the sequence (O00206 24-631 limits assumed) above
T2 sequence (Q9Y6Y9 19-160 limits assumed, chain 2 of 2): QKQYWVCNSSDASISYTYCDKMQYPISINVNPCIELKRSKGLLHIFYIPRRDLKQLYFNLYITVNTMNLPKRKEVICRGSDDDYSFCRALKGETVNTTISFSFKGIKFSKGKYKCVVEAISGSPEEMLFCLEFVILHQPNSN
Description: (§1) Binding of S100A9 proteins to TLR4/MD2 was analysed by a modified S100A9-ELISA. Briefly, TLR4/MD2 was coupled to the wells of a 96-well plate and served as capturing molecule. After blocking of the unspecific binding sites by PBS/5% skim milk powder plates were washed three times. S100A9-wt or mutant S100A9 proteins were added at a concentration of 2 μg/ml each in the presence and absence of 100 μM Calcium and incubated for two hours at room temperature. Unbound S100A9 was removed by washing the plates for three times followed by the addition of a primary anti-S100A9-antibody (1 μg/ml, polyclonal, rabbit). After a washing step the secondary anti-rabbit-IgG-antibody coupled to HRP (1 μg/ml from Cell Signalling) was added. TMB was used as substrate for HRP to quantify binding by absorbance readings at 450 nm in an ELISA reader (Anthos Mirkosysteme).

[3] = tested on: human monocytes; experiment: Stimulation of human monocytes, TNFα release quantified by ELISA; format: cell-based; conditions: for activation of monocytes (TNFα released into the culture medium): human monocytes stimulated for four hours, TNFα by ELISA, FIG. 1; for effect of mutation on function of the S100A9 homodimer: purified mutant S100A9 proteins, alanine exchange, binding to and activation of TLR4
Source text: Using standard techniques known in the art, the inventors expressed the individual human proteins S100A8 and S100A9 in recombinant form, and purified them. After generating homodimers and heterodimers, they analysed the properties of the complexes. FIG. 1 illustrates the stimulation of human monocytes for four hours with the indicated concentrations of (A) recombinant human S100A8, recombinant human S100A9 or human S100A8/S100A9, and (B) recombinant human S100A8/S100A9, recombinant human S100A8/S100A9 (N69A) or S100A8/S100A9 (E78A). TNFα released into the culture medium was quantified by means of ELISA.
Monocytes were isolated from human buffy coats by Ficoll-Paque and subsequent Percoll density centrifugation (Pharmacia, Freiburg, Germany) Cells were cultured in Teflon bags (Biofolie 25; Heraeus Instruments, Hanau, Germany) using McCoy's 5a medium supplemented with 15% fetal calf serum for 1 day before stimulation. Monocytes were incubated for 4 hours with different dosis of hS100A8, hS100A9, hS100A8/S100A9 or the modified proteins as indicated in the figures and TNF-α concentrations in supernatants were determined by ELISA (OptEIA, BD Biosciences, Germany).
Release of cytokine TNF-α was measured in the culture supernatants by ELISA (OptEIA, BD Biosciences). […]

[4] = molecular target: T1, TLR4/MD2; experiment: Binding of S100A9-wt and mutant proteins to TLR4/MD2 (modified S100A9-ELISA); conditions: 2 μg/ml protein, plate-coupled TLR4/MD2, absorbance 450 nm; FIG. 6B, 6C
Description: as §1

[5] = molecular target: T2, his-tagged rhTLR4/MD2; experiment: modified S100A9 ELISA, TLR4/MD2 coated on the plate, 2 ug/ml S100A9 protein, absorbance at 450 nm
Description: as §1

Molecule | binding to the receptor compared to non-mutated protein (S100A9 wt) [4] | binding result [5] | effect of mutation on function of the S100A9 homodimer [3] | further results
55-71: synthetic peptide, positions 55-71 of human S100A8, complete C-terminal EF hand, FKELDINTDGAVNFQEF | – | – | – | binding to TLR4/MD2 [1]: able to bind to TLR4/MD2
No. 15: tryptic peptide of human S100A9, amino acid positions 73-85 (QLSFEEFIMLMAR, SEQ ID NO: 3) (QLSFEEFIMLMARTTT) | – | – | – | binding to TLR4/MD2 [1]: specific interaction with TLR4/MD2
63-79 A5: control peptide 63-79 of S100A9 with E64A, D65A, K72A, Q73A and E77A exchanged to alanine (MAALDTNADAALSFAEF) [reference compound] | – | – | – | binding to TLR4/MD2 [1]: no binding could be detected
63-79: synthetic peptide, positions 63-79 of S100A9, complete C-terminal EF hand, MEDLDTNADKQLSFEEF | – | – | – | binding to TLR4/MD2 [1]: able to bind to TLR4/MD2
S100A9 double mutant with alanine at both D65 and Q73 (ligand, Purified recombinant double mutant of human S100A9, homodimer) MTCKMSQLERNIETIINTFHQYSVKLGHPDTLNQGEFKELVRKDLQNFLKKENKNEKVIEHIMEALDTNADKALSFEEFIMLMARLTWASHEKMHEGDEGPGHHHKPGLGEGTP | – | – | – | binding result [2]: binds
S100A9: recombinant human protein S100A9 (Uniprot P06702), used as homodimer (protein) MTCKMSQLERNIETIINTFHQYSVKLGHPDTLNQGEFKELVRKDLQNFLKKENKNEKVIEHIMEDLDTNADKQLSFEEFIMLMARLTWASHEKMHEGDEGPGHHHKPGLGEGTP | – | – | – | activation of monocytes (TNFα released into the culture medium) [3]: induce a particular strong, pro-inflammatory response in monocytes; activation of monocytes (TNFα released into the culture medium) ([3]; listed as homodimers of S100A9): induce this response
heterotetrameric complex between S100A8 and S100A9: complex of recombinant human S100A8 and S100A9, heterotetramer in presence of calcium (protein) chain 1: MLTELEKALNSIIDVYHKYSLIKGNFHAVYRDDLKKLLETECPQYIRKKGADVWFKELDINTDGAVNFQEFLILVIKMGVAAHKKSHEESHKE chain 2: MTCKMSQLERNIETIINTFHQYSVKLGHPDTLNQGEFKELVRKDLQNFLKKENKNEKVIEHIMEDLDTNADKQLSFEEFIMLMARLTWASHEKMHEGDEGPGHHHKPGLGEGTP | – | – | – | activation of monocytes (TNFα released into the culture medium) [3]: does not induce an inflammatory response in monocytes; activation of monocytes (TNFα released into the culture medium) ([3]; listed as heterotetrameric complex of s100A8 and S100A9): did not show activating properties that would be comparable to the individual components
S100A9 double mutant with alanine at both Q73 and E77 (ligand, Purified recombinant double mutant of human S100A9, homodimer) MTCKMSQLERNIETIINTFHQYSVKLGHPDTLNQGEFKELVRKDLQNFLKKENKNEKVIEHIMEDLDTNADKALSFAEFIMLMARLTWASHEKMHEGDEGPGHHHKPGLGEGTP | – | – | – | binding result [2]: binds
S100A9E77A (ligand, Purified recombinant mutant of human S100A9, homodimer; also called S100A9 E77A mutant) MTCKMSQLERNIETIINTFHQYSVKLGHPDTLNQGEFKELVRKDLQNFLKKENKNEKVIEHIMEDLDTNADKQLSFAEFIMLMARLTWASHEKMHEGDEGPGHHHKPGLGEGTP | weaker binding | binds | loss of function | –
S100A9 double mutant with alanine at both E64 and D65 (ligand, Purified recombinant double mutant of human S100A9, homodimer) MTCKMSQLERNIETIINTFHQYSVKLGHPDTLNQGEFKELVRKDLQNFLKKENKNEKVIEHIMAALDTNADKQLSFEEFIMLMARLTWASHEKMHEGDEGPGHHHKPGLGEGTP | – | – | – | binding result [2]: binds
S100A9 double mutant with alanine at both E64 and Q73 (ligand, Purified recombinant double mutant of human S100A9, homodimer) MTCKMSQLERNIETIINTFHQYSVKLGHPDTLNQGEFKELVRKDLQNFLKKENKNEKVIEHIMADLDTNADKALSFEEFIMLMARLTWASHEKMHEGDEGPGHHHKPGLGEGTP | – | – | – | binding result [2]: binds
S100A9E64A (ligand, Purified recombinant mutant of human S100A9, homodimer; also called S100A9 E64A mutant) MTCKMSQLERNIETIINTFHQYSVKLGHPDTLNQGEFKELVRKDLQNFLKKENKNEKVIEHIMADLDTNADKQLSFEEFIMLMARLTWASHEKMHEGDEGPGHHHKPGLGEGTP | weaker binding | binds | loss of function | –
S100A9D65A (ligand, Purified recombinant mutant of human S100A9, homodimer; also called S100A9 D65A mutant) MTCKMSQLERNIETIINTFHQYSVKLGHPDTLNQGEFKELVRKDLQNFLKKENKNEKVIEHIMEALDTNADKQLSFEEFIMLMARLTWASHEKMHEGDEGPGHHHKPGLGEGTP | weaker binding | binds | loss of function | –
S100A9Q73A (ligand, Purified recombinant mutant of human S100A9, homodimer; also called S100A9 Q73A mutant) MTCKMSQLERNIETIINTFHQYSVKLGHPDTLNQGEFKELVRKDLQNFLKKENKNEKVIEHIMEDLDTNADKALSFEEFIMLMARLTWASHEKMHEGDEGPGHHHKPGLGEGTP | weaker binding | binds | loss of function | –
S100A9K72A (ligand, Purified recombinant mutant of human S100A9, homodimer; also called S100A9 K72A mutant) MTCKMSQLERNIETIINTFHQYSVKLGHPDTLNQGEFKELVRKDLQNFLKKENKNEKVIEHIMEDLDTNADAQLSFEEFIMLMARLTWASHEKMHEGDEGPGHHHKPGLGEGTP | not significantly different from the wild type protein | binds | hardly any effect | –
S100A9R85A (ligand, Purified recombinant mutant of human S100A9, homodimer; also called S100A9 R85A mutant) MTCKMSQLERNIETIINTFHQYSVKLGHPDTLNQGEFKELVRKDLQNFLKKENKNEKVIEHIMEDLDTNADKQLSFEEFIMLMAALTWASHEKMHEGDEGPGHHHKPGLGEGTP | not significantly different from the wild type protein | binds | hardly any effect | –
S100A8: recombinant human protein S100A8 (Uniprot P05109), used as homodimer (protein) MLTELEKALNSIIDVYHKYSLIKGNFHAVYRDDLKKLLETECPQYIRKKGADVWFKELDINTDGAVNFQEFLILVIKMGVAAHKKSHEESHKE | – | – | – | activation of monocytes (TNFα released into the culture medium) [3]: induce a particular strong, pro-inflammatory response in monocytes; activation of monocytes (TNFα released into the culture medium) ([3]; listed as homodimers of S100A8): induce this response
